Source: publication doi:10.1101/2020.03.11.988071 (bioRxiv, 2020)

Target: T1, 4H.01 (synthetic construct (de novo design))
T1 chain: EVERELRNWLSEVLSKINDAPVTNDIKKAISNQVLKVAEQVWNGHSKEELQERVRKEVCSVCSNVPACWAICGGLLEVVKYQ
Experiment: SPR

B1: 2D10 IgG (antibody, V domains shown)
VH: QVQLVQSGPEVKKPGASVRLSCKASGYVFTNYGVSWVRQAPGQGLEWMGWSSPYNGNTYYAQKLKARVTMTTDTSTNTAYMELRSLRSDDTAVYYCGRDMLGVVQAVAGPFDSWGQGTLVTVSS
VL: DTPMTQSPSSVSASVGDRVTISCRASQGISNSLAWYQQKLGKAPQLLIYAASSLQSGVPSRFSGSGSGTDFTLTISSLQPEDFATYYCQQTNTFPFTFGPGTKVEVR
Question: With B1 as the binder, how does the Kd read?
Answer: 200 nM

B2: Motavizumab IgG (antibody, V domains shown)
VH: QVTLRESGPALVKPTQTLTLTCTFSGFSLSTAGMSVGWIRQPPGKALEWLADIWWDDKKHYNPSLKDRLTISKDTSKNQVVLKVTNMDPADTATYYCARDMIFNFYFDVWGQGTTVTVSS
VL: DIQMTQSPSTLSASVGDRVTITCSASSRVGYMHWYQQKPGKAPKLLIYDTSKLASGVPSRFSGSGSGTEFTLTISSLQPDDFATYYCFQGSGYPFTFGGGTKVEIK
Question: For B2, which Kd is on record?
Answer: 0.5 nM
